Literature values as cited in US20180296685A1, “TARGETED CONSTRUCTS AND FORMULATIONS THEREOF” (TARVEDA THERAPEUTICS, INC., priority 2017, published 2018).

Details: transthyretin, serum protein

## Transthyretin
  in vivo half-life: around 48 h
